Assay results as given in patent publication US20090264512, “NUCLEIC ACID LIGANDS CAPABLE OF BINDING TO […] OR INTERNALIN A” (published 2009).

T1: Internalin A (InlA) (Listeria monocytogenes, UniProt P0DJM0 P0DJM0:36-770)
T1 sequence: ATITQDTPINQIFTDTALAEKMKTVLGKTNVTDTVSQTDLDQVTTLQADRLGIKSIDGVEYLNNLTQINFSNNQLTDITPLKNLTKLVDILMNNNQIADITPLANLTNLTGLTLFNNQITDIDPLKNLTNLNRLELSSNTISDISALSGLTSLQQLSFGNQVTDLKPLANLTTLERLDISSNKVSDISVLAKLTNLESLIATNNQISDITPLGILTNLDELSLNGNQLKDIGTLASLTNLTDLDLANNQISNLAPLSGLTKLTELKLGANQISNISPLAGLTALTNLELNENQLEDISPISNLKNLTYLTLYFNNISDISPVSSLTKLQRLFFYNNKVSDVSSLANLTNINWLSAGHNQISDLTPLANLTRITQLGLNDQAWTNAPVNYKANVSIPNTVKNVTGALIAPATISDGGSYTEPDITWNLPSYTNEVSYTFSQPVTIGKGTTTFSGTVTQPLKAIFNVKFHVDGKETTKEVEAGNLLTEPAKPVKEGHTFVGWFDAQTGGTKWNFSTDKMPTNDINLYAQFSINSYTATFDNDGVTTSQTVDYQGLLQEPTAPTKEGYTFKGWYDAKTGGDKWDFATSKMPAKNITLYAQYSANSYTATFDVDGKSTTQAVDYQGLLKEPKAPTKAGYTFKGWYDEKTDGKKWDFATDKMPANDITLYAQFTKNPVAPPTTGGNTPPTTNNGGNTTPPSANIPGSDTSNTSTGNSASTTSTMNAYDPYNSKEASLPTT


What was measured:
Internalin A (InlA) [1] = target: T1, Internalin A (InlA); test: ELONA; strong ELISA signal compared to library; settings: tags: His-tag
Experimental: A nickel-coated microplate (HisSorb, Qiagen) was used to bind 500 ng his-tagged inlA, peptide D or 0610 (Listeria monocytogenes-specific non-internalin cell wall protein) to the plate as per manufacturer's directions. Biotinylated aptamer or aptamer library (5 ng/μL) was heated to 95° C. for 3 minutes and quickly cooled to 4° C. for 5 minutes before application to each well. The biotinylated aptamer or aptamer library was incubated with the bound proteins in the HisSorb plate overnight at 4° C. with gentle shaking. Wells were then washed four times with 200 μL PBS-T. Streptavidin-horseradish peroxidase was added to the wells for 30 minutes at room temperature with gentle shaking. The wells were washed as described previously before development with TMB (Pierce). The reactions were stopped with 1M H₂SO₄ and absorbance was measured at 450 nm using a ThermoMax microplate reader (Molecular Devices). In FIG. 6, the initial aptamer library was used as a negative control, and the data represents the average±S.D. of n=3. […] The amount of selected aptamer bound to the particular proteins was determined by absorbance measured. The data represents the average±S.D. of n=3.

Internalin A (InlA) [2] = target: T1, Internalin A (InlA); test: competition; competitive ELISA, sigmoidal fit; settings: tags: His-tag
Experimental: A specified amount of internalin A (500 ng) was coated on the plate. 5 ng/uL biotinylated aptamer A8 (SEQ ID NO:21) was incubated with increasing amounts of non-biotinylated aptamer A8 and then applied to the coated plates. Using GraphPad Prism 4 software, the Sigmoidal model (equation: a+(b−a)/(1+10̂(x−c))) was used to determine EC50.

Row | Binder | binding result (Internalin A (InlA) [1]) | EC50 (Internalin A (InlA) [2])
1 | ATCAGCAACAAGTGTGGGTAAGGGGAGGGCGGGAATGGGATGATGAT (ssDNA) [InlA aptamer SEQ 23] | binds | 
2 | ATCGGGTTATAGTTAGCGGGTAGGGGAGGGAGGGTAGATAGCTCGAT (ssDNA) [InlA aptamer SEQ 25] | binds | 
3 | ATCTAGGACTGGGTGGGAAGGGATGGGAAAAATGTCCGCGCCTCGAT (ssDNA) [InlA aptamer SEQ 22] | binds | 
4 | ATCCATGGGGCGGAGATGAGGGGGAGGAGGGCGGGTACCCGGTTGAT (ssDNA) [A8] |  | 0.543 µM
5 | ATCGGATGTGGGCAGGGGGGGGTGGGAAACGATTACAGACACAAGAT (ssDNA) [InlA aptamer SEQ 24] | binds | 
